Source: US20210380703A1
Numbering of substitutions follows the chain as printed.

B1: 376_F06 (antibody, V domains shown)
VH: EVQLLESGGGLVQPGGSLRLSCAASGFTFSSYGMNWVRQAPGKGLEWVSGINYNGGYTGYADSVKGRFTISRDNSKNTLYLQMNSLRAEDTAVYYCARGANWHDTHLDYWGQGTLVTVSS
VL: DIQMTQSPSSLSASVGDRVTITCRASQSILTYVNWYQQKPGKAPKLVIYAATSRASGVPSRFSGSGSGTDFTLTISSLQPEDFATYYCQQSYETPLTFGGGTKVEIK
B2: 376_G05 (antibody, V domains shown)
VH: B1 VH with G33S, S49A, G59S, H106A
VL: B1 VL with L30I, T31S, T94S
B3: 366_D08 (antibody, V domains shown)
VH: B1 VH with N35H, G50N, T58K, G59S, N101T
VL: B1 VL with T31S, R54L, T94N
B4: 365_C02 (antibody, V domains shown)
VH: B1 VH with S30D, G33S, G50N, T58K, N101T
VL: B1 VL with L30S, V33L, A55H, T94N
B5: 376_G10 (antibody, V domains shown)
VH: B1 VH with S30D, S49A, G59S, H106A
VL: B1 VL with T31S, V47L, T94S
B6: 365_A08 (antibody, V domains shown)
VH: B1 VH with G33S, S49A, G50S, T58K, G59S, N101T
VL: B1 VL with L30I, V33L, Y92D, E93N
B7: 367_B06 (antibody, V domains shown)
VH: B1 VH with G33S, S49A, G50N, N101T
VL: B1 VL with L30I, T31S, R54L, A55H, E93N, T94S
B8: 367_C08 (antibody, V domains shown)
VH: B1 VH with S30D, G33S, N35H, S49A, G59S, N101T
VL: B1 VL with V33L, V47L, R54L, Y92D, E93S, T94N
B9: 365_C04 (antibody, V domains shown)
VH: B1 VH with S30D, G33S, S49A, G50N, T58K, N101T
VL: B1 VL with V33L, R54L, E93D
B10: 367_A02 (antibody, V domains shown)
VH: B1 VH with S30D, G50S, G55S, T58K, N101T
VL: B1 VL with L30I, T31S, V33L, V47L, A51V, E93D
B11: 365_F05 (antibody, V domains shown)
VH: B1 VH with S49A, G50S, G59S, N101T
VL: B1 VL with L30V, V47L
B12: 376_H11 (antibody, V domains shown)
VH: B1 VH with S30D, G33S, G50N, H106A
VL: B1 VL with L30S, T31R, V33L, V47L, A51V, R54L, T94S
B13: 366_G09 (antibody, V domains shown)
VH: B1 VH with S30D, S31D, G33S, S49A, G50S, G55S, N101T
VL: B1 VL with T31S, E93D, T94L
B14: 367_D05 (antibody, V domains shown)
VH: B1 VH with S31D, G33S, G50S, T58K, G59S, N101T
VL: B1 VL with L30I, T31S, R54L, E93D, T94S
B15: 365_D02 (antibody, V domains shown)
VH: B1 VH with G33S, N35H, S49A, G50S, G59S, N101T
VL: B1 VL with L30V, V33L, V47L, R54L, E93D, T94N
B16: 367_F09 (antibody, V domains shown)
VH: B1 VH with S30D, G33S, N35H, S49A, G59S, N101T
VL: B1 VL with V33L, V47L, R54L, Y92D, E93S, T94N
B17: 365_D10 (antibody, V domains shown)
VH: B1 VH with G33S, S49A, N101T
VL: B1 VL with L30S, V33L, V47L, T94S
B18: 376_G06 (antibody, V domains shown)
VH: B1 VH with S49A
VL: B1 VL with L30V, T31S, E93N, T94S
B19: 367_E07 (antibody, V domains shown)
VH: B1 VH with S31D, G33S, G50S, T58K, N101T
VL: B1 VL with T31S, T94N
B20: 376_H04 (antibody, V domains shown)
VH: B1 VH with G33S, S49A, T58K, H106A
VL: B1 VL with E93D, T94L
B21: 367_D09 (antibody, V domains shown)
VH: B1 VH with S30D, S49A, G50S, T58K, G59S, N101T
VL: B1 VL with V33L, V47L, R54L, E93D, T94N
B22: 373_H05 (antibody, V domains shown)
VH: B1 VH with S31D, G33S, S49A, G50N, T58K, G99S, H106A
VL: B1 VL
B23: 374_D08 (antibody, V domains shown)
VH: B1 VH with S30D, G55S, G99S
VL: B1 VL with V33L, V47L, A55H, T94S
B24: 373_E07 (antibody, V domains shown)
VH: B1 VH with S49A, G50N, G59S, G99S, H106A
VL: B1 VL with V47L, R54L
B25: 373_E12 (antibody, V domains shown)
VH: B1 VH with G33S, S49A, G50N, G99S, H106A
VL: B1 VL with T31S, E93D
B26: 374_B06 (antibody, V domains shown)
VH: B1 VH with S30D, G33S, S49A, G55S, T58K, G99S
VL: B1 VL with V47L, E93D
B27: 373_H01 (antibody, V domains shown)
VH: B1 VH with S30D, G33S, S49A, G50N, G99S, H106A
VL: B1 VL with T31S, V33L, E93D, T94N
B28: 374_A07 (antibody, V domains shown)
VH: B1 VH with G33S, G55S, T58K, G99S, H106A
VL: B1 VL with T31S, V47L, A51V, E93D, T94L
B29: 373_G12 (antibody, V domains shown)
VH: B1 VH with G33S, G50N, G59S, G99S, H106A
VL: B1 VL with T31S, V33L, V47L, A51T, R54L, E93N, T94S
B30: 374_B12 (antibody, V domains shown)
VH: B1 VH with S30D, G33S, S49A, G99S
VL: B1 VL with L30S, T31S, V33L, E93D, T94N
B31: 373_G10 (antibody, V domains shown)
VH: B1 VH with S31D, G50N, T58K, G59S, G99S, H106A
VL: B1 VL with L30V, T31S, V47L, E93D, T94L
B32: 374_B04 (antibody, V domains shown)
VH: B1 VH with G33S, G50N, G55S, G99S, H106A
VL: B1 VL with L30V, T31S, V33L, V47L, A51V, T94S
B33: 374_C06 (antibody, V domains shown)
VH: B1 VH with S30D, S31D, G33S, G50S, G55S, T58K, G99S, H106A
VL: B1 VL with V47L, E93N, T94S
B34: 374_C03 (antibody, V domains shown)
VH: B1 VH with S30D, G33S, G55S, G59S, G99S, H106A
VL: B1 VL with V33L, V47L, E93D, T94S

What follows are binders tested against Human Fc (human) (assay: ELISA; negative control).
Work on B1 yielded an optical density of 0.284 OD. B2 was tested, and the optical density was 0.252 OD. Work on B3 yielded an optical density of 0.312 OD. In the case of B4, the optical density is reported as 0.362 OD. B5 gave an optical density of 0.321 OD. For B6, the optical density was 0.256 OD. Binder B7 has an optical density of 0.378 OD. Binder B8 has an optical density of 0.278 OD. B9 showed an optical density of 0.305 OD. Work on B10 yielded an optical density of 0.305 OD. Work on B11 yielded an optical density of 0.376 OD. For B12, the optical density was 0.325 OD. For B13, the optical density was 0.291 OD. B14 gave an optical density of 0.265 OD. In the case of B15, the optical density is reported as 0.486 OD. Work on B16 yielded an optical density of 0.289 OD. Binder B17 has an optical density of 0.641 OD. With B18 the optical density was 0.267 OD. B19 gave an optical density of 0.221 OD. For B20, the optical density was 0.34 OD. With B21 the optical density was 0.381 OD.

The binders below were run against Human Fc (human) (assay: ELISA, negative control).
In the case of B22, the optical density is reported as 0.201 OD. B23 showed an optical density of 0.201 OD. B24 was tested, and the optical density was 0.294 OD. B25 was tested, and the optical density was 0.17 OD. B26 gave an optical density of 0.157 OD. In the case of B27, the optical density is reported as 0.198 OD. For B28, the optical density was 0.206 OD. B29 was tested, and the optical density was 0.174 OD. Binder B30 has an optical density of 0.257 OD. In the case of B31, the optical density is reported as 0.2 OD. B32 was tested, and the optical density was 0.222 OD. B33 was tested, and the optical density was 0.18 OD. Work on B34 yielded an optical density of 0.208 OD.
